To fix the notation:
B2: IL-10R-Ig (Fc fusion, UniProt Q13651 22-235, looked up)
chain: HGTELPSPPSVWFEAEFFHHILHWTPIPNQSESTCYEVALLRYGIESWNSISNCSQTLSYDLTAVTLDLYHSNGYRARVRAVDGSRHSNWTVTNTRFSVDEVTLTVGSVNLEIHNGFILGKIQLPRPKMAPANDTYESIFSHFREYEIAIRKVPGNFTFTHKKVKHENFSLLTSGEVGEFCVQVKPSVASRSNKGMWSKEECISLTRQYFTVTN
notes: Control; Used as supernatant of cells transfected with IL-10R-Ig fusion cDNA; The construct is not described; also called IL-10R-Ig fusion; not shown: Ig part of the control fusion is not described
B4: LICR-2-Ig (Fc fusion, murine)
chain: RPRLAPPQNVTLLSQNFSVYLTWLPGLGNPQDVTYFVAYQSSPTRRRWREVEECAGTKELLCSMMCLKKQDLYNKFKGRVRTVSPSSKSPWVESEYLDYLFEVEPAPPVLVLTQTEEILSANATYQLPPCMPPLDLKYEVAFWKEGAGNKTLFPVTPHVTPHGQPVQITLQPAASEHHCLSARTIYTFSVPKYSKFSKPTCFLLEVPEPRIPKPSTPPGSSCPPGNILGGPSVFIFPPKPKDALMISLTPKVTCVVVDVSEDDPDVHVSWFVDNKEVHTAWTQPREAQYNSTFRVVSALPIQHQDWMRGKEFKCKVNNKALPAPIERTISKPKGRAQTPQVYTIPPPREQMSKKKVSLTCLVTNFFSEAISVEWERNGELEQDYKNTPPILDSDGTYFLYSKLTVDTDSWLQGEIFTCSVVHEALHNHHTQKNLSRSPGK
notes: domain: hinge, and the CH2 and CH3 domains; Used as unpurified supernatant of transfected HEK293-EBNA cells

Experiment [1] deals with B2. Briefly: ELISA, plate coated with recombinant AK155, 50 µl control supernatant, anti-murine Ig-peroxidase detection. On the procedure: (§1) Interaction analysis was carried out via ELISA. In brief, plates were coated with either recombinant AK155; Knappe, et al., J. Virol 74:3881-7 (2000), incorporated by reference, recombinant human IL-22, or 0.02 μg/ml of bovine serum albumin, and incubated with the test sample overnight at 4° C. The test substance, in all cases, was mixed in 20 mM Tris glycine buffer containing 30 mM NaCl, pH 9.2. After washing in PBS buffer plus Tween 20 (1×10⁻⁴ v/v), plates were blocked with PBS plus 1% BSA for 4 hours. 50 μl of supernatant derived from cells transfected with LICR-2 or with control supernatant referred to supra were added, and the plates were incubated for 2 hours, at 37° C. Bound LICR-2-Ig was detected using anti-murine Ig polyclonal antibodies coupled to peroxidase. The reaction was developed by adding 100 μl of TMB (1.25 mM), followed by 20 μl of H₂SO₄ (2M) to stop the reaction. Absorbance was measured at 450 nm.
(In an ELISA, binding on a coated surface is turned into a signal by an enzyme label.)

Experiment [2] concerns the target T1, bovine serum albumin (bovine, UniProt P02769 25-607).
T1 construct: Control coating protein; also called BSA
As to the kind of experiment: ELISA, plate coated with BSA, 50 µl control supernatant, anti-murine Ig-peroxidase detection. The procedure: as §1

Experiment [3] addresses B4. As to the kind of experiment: ELISA, plate coated with recombinant human IL-22, 50 µl supernatant, anti-murine Ig-peroxidase detection. On the procedure: as §1
For experiment [4], the target named is B2. Briefly: ELISA, plate coated with recombinant human IL-22, 50 µl control supernatant, anti-murine Ig-peroxidase detection. The procedure: as §1
For experiment [5], the target named is T1, bovine serum albumin. Briefly: ELISA, plate coated with BSA, 50 µl supernatant, anti-murine Ig-peroxidase detection. The procedure:
as §1

T1 sequence (P02769 25-607 limits assumed): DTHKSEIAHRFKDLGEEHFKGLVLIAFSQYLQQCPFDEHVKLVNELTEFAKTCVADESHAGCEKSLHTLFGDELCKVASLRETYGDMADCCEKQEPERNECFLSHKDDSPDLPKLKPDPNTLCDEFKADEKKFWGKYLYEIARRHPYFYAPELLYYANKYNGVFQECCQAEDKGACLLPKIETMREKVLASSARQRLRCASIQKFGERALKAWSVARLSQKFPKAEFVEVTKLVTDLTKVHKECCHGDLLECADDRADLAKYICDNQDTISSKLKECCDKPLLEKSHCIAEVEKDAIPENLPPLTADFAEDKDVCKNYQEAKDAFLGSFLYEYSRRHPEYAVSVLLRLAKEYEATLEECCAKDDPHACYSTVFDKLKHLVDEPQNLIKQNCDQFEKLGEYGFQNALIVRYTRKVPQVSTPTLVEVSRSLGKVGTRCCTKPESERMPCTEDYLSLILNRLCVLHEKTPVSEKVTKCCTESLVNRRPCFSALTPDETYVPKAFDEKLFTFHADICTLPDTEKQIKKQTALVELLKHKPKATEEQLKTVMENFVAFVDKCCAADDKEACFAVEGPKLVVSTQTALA

B1: recombinant AK155 (ligand, human, UniProt Q9NPH9 22-171, looked up)
chain: KHKQSSFTKSCYPRGTLSQAVDALYIKAAWLKATIPEDRIKNIRLLKKKTKKQFMKNCQFQEQLLSFFMEDVFGQLQLQGCKKIRFVEDFHSLRQKLSHCISCASSAREMKSITRMKRIFYRIGNKGIYKAISELDILLSWIKKLLESSQ
notes: Coated on the ELISA plate; The assay paragraph says only 'recombinant AK155'
Turning to B1, the binding result in experiment [1] is reported as “no binding”. As for B2, the binding result in experiment [2] is reported as “no binding (tested: 0.02 µg/ml BSA (coating))”.

B3: recombinant human IL-22 (ligand, UniProt Q9GZX6 34-179, looked up)
chain: APISSHCRLDKSNFQQPYITNRTFMLAKEASLADNNTDVRLIGEKLFHGVSMSERCYLMKQVLNFTLEEVLFPQSDRFQPYMQEVVPFLARLSNRLSTCHIEGDDLHIQRNVQKLKDTVKKLGESGEIKAIGELDLLFMSLRNACI
notes: also called IL-TIF
On to B3, for which the binding result in experiment [3] and in experiment [4] was “no binding” in each case.

As for B4, in experiment [5], the binding result is “no binding (tested: 0.02 µg/ml BSA (coating))”.

For the origin of these results see patent publication US20030158100A1 (LUDWIG INSTITUTE FOR CANCER RESEARCH, published 2003).
